Measurements as given in article PMC10370059 (bioRxiv, 2023).

Experiments:
[1] = molecular target: biotinylated Arr3_ΔC loaded with IP6 (bovine) (UniProt P32120); test: SEC
[2] = molecular target: biotinylated Arr3_ΔC loaded with IP6 (bovine, UniProt P32120, biotin (sulfo-NHS-Biotin, >95% biotinylated)); test: ELISA
[3] = molecular target: Arr3_ΔC (preactivated arrestin3, truncated after residue 392) (bovine, UniProt P32120); test: pull-down

Molecule	stoichiometry N [1]	binding result [2]	binding result [3]
biotinylated Arr3_ΔC loaded with IP6 (from UniProt P32120 1-392) (domain or fragment)	3		
Fab7 (Fab, V domains shown) VH: EVQLVESGGGLVQPGGSLRLSCAASGFNVSSSYIHWVRQAPGKGLEWVASISSYYGYTYYADSVKGRFTISADTSKNTAYLQMNSLRAEDTAVYYCARKSMYHRGWGWLSWVYGAMDYWGQGTLVTVSS VL: DIQMTQSPSSLSASVGDRVTITCRASQSVSSAVAWYQQKPGKAPKLLIYSASSLYSGVPSRFSGSRSGTDFTLTISSLQPEDFATYYCQQSYYYPITFGQGTKVEIK		binds	binds
